Experimental data published in patent publication US20220162331A1 (CHENGDU CONMED BIOSCIENCES, published 2022).
Where two headings read alike, the source gives them in different places. One block for each binder: values may come before it.

Columns and labels:
[1] = target: T1, human CD73 on Calu6 cells (human, UniProt P21589 27-549); experiment: FACS on Calu6 cells
T1 construct: whole, on cells; Endogenous CD73 of the Calu6 cell line; also called CD73 on cell membrane surface
T1 sequence (looked up): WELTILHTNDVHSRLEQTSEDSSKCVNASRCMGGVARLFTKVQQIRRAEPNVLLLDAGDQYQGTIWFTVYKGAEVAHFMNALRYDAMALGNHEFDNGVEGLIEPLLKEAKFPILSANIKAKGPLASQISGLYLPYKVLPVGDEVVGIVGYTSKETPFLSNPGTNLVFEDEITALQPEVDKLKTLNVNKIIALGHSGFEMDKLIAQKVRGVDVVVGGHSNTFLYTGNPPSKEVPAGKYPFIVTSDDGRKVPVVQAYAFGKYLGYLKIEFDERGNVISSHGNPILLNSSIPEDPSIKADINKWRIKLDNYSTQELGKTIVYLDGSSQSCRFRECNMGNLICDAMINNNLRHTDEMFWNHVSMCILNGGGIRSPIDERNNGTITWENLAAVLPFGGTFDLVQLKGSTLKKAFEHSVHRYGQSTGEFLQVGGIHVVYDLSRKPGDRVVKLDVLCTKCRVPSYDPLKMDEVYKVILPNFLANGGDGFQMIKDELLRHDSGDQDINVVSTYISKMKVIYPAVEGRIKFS

[2] = target: T2, recombinant human CD73 extracellular domain (Trp27-Lys546) with C-terminal 6-histidine tag (human, UniProt P21589 27-547); experiment: cell-based or functional assay
T2 sequence: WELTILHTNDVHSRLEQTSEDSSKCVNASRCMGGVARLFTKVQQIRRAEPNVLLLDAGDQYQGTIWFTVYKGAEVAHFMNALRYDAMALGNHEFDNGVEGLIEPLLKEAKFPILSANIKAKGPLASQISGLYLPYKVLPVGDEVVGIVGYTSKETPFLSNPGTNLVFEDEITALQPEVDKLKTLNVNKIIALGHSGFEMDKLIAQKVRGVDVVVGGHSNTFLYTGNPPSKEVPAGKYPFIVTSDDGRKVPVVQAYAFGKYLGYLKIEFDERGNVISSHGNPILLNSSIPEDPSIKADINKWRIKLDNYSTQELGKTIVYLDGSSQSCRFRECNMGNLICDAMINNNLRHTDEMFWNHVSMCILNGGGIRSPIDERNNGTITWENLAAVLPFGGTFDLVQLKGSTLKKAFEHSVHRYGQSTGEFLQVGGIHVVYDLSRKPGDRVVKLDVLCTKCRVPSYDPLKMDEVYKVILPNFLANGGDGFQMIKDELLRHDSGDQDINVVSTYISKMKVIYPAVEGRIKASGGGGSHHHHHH

[3] = target: T1, human CD73 on Calu6 cells; experiment: cell-based or functional assay
[4] = target: T1, human CD73 on Calu6 cells; experiment: cell-based or functional assay; remark: listed apart in the source
[5] = target: T3, human full-length CD73 on hCD73-CHO-1C11 cells (human, UniProt P21589 27-549); experiment: FACS on CHO-CD73-1C11 cells
T3 construct: it may be a nucleotide entry; also called CHO-CD73-1C11
T3 sequence: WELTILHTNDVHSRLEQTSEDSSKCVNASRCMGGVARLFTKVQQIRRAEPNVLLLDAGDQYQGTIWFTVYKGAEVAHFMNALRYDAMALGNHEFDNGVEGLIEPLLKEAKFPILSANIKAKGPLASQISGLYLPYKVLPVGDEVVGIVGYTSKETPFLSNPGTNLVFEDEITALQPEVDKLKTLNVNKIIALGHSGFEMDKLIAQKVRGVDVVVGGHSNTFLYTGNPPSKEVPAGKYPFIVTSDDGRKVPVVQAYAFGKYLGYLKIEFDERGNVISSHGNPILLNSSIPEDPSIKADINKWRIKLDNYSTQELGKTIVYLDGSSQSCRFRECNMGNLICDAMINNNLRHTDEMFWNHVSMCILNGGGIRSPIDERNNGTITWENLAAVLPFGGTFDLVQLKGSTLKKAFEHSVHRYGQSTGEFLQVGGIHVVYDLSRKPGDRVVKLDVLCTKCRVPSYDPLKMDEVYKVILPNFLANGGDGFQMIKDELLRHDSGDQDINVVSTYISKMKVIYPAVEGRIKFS

[6] = target: T2, recombinant human CD73 extracellular …; experiment: ELISA, plate coated with recombinant CD73 extracellular domain
[7] = target: T4, recombinant cynomolgus monkey CD73 extracellular domain (Trp27-Lys546) (cynomolgus monkey, UniProt P21589 27-547 (human entry)); experiment: as above
T4 construct: also called cynoCD73; recombinant monkey CD73 extracellular domain
T4 chain: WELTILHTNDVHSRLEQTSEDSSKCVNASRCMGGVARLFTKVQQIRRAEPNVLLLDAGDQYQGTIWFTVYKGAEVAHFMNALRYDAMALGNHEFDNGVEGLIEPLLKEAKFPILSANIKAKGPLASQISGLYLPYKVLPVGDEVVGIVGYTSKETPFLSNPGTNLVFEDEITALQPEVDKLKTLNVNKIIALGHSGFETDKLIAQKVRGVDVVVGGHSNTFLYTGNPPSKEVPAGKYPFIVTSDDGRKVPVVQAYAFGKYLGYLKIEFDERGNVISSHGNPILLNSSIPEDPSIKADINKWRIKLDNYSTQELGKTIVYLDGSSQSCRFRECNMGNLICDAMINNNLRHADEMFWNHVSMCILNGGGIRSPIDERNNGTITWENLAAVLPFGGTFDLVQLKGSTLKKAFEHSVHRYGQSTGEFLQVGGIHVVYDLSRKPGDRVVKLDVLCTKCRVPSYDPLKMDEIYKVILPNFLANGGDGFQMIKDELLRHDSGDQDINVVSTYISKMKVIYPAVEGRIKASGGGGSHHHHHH

[8] = target: T2, recombinant human CD73 extracellular …; experiment: SPR, Biacore T200, antibody captured on Protein A chip, hCD73 ECD as analyte, 1:1 Langmuir
Procedure: The affinity of CD73 antibody was determined by plasma surface resonance on Biacore T200. At room temperature, the antibody concentration was diluted to 0.5 μg/mL with 1×HBS-EP buffer (prepared from HBS-EP+Buffer 10×, GE, BR1008-26), the Protein A chip (GE, 29-1275-56) was coated with a flow rate of 10 μL per minute, the capture time was about 40 seconds, and the coated RU value was controlled to be about 100 RU. The recombinant human CD73 extracellular domain protein was diluted to 3 μg/mL with 1×HBS-EP buffer, diluted to two-fold gradient, a total of 6 concentrations, 200 μL of each concentration gradient. The 1×HBS-EP buffer was used as a control, the flow rate was 30 μl/min, the binding time was 120 seconds, and the dissociation time was 600 seconds. The affinity was fitted using Langmuir 1:1 Kinetic theoretical model and analyzed by Biacore T200 Evaluation Software (Table 3).

[9] = target: T1, human CD73 on Calu6 cells; experiment: cell-based or functional assay; remark: listed apart in the source
[10] = target: T1, human CD73 on Calu6 cells; experiment: cell-based or functional assay; remark: listed apart in the source

- EC50 [1]: 1.03 nM
- Inhibition of CD73 enzyme activity IC50(nM), Soluble CD73 [2]: 1.03 nM
- Inhibition of CD73 enzyme activity IC50(nM), Calu6 [3]: 1.72 nM
- CD73 endocytosis ratio %, 30 minutes [4]: 17.1%
- CD73 endocytosis ratio %, 60 minutes [4]: 38.5%
- CD73 endocytosis ratio %, 120 minutes [4]: 22.2%
- CD73 endocytosis ratio %, 240 minutes [4]: 35.3%
- CD73 endocytosis ratio %, 480 minutes [4]: 47.7%
- EC50 [5]: 1.91 nM
- EC50 [6]: 0.02 nM
- EC50 [7]: 0.02 nM
- Kd [8]: 0.18 nM
- koff [8]: 0.000111 s⁻¹
- kon [8]: 617000 M⁻¹ s⁻¹
B1: CD73 antibody 6G8 (chimeric) (antibody, V domains shown)
VH: QVTLKESGPGILKPSQTLSLTCSFSGFSLNTSGMGVGWIRQPSGKGLEWLAHIWWDDDKYYNPSLKSQLTISKDTSRNQVFLRIASVDTADTATYYCARRERWAWFAYWGQGTLVTVSA
VL: DIVMTQSQKFMSASVGDRVSVTCKASQNVFTNVAWYQQKPGQSPKVLIYSASYRYSGVPDRFTGSGSGTDFTLTINNVQSEDLAEYFCQQYNSYPTFGSGTKLEIK
notes: Mouse variable regions on human IgG heavy chain constant region and human kappa constant region (chimeric IgG); also called Clone 6G8; 6G8 Chimera

- CD73 endocytosis ratio %, 0 minute [9]: 0%
- CD73 endocytosis ratio %, 30 minutes [9]: 28%
- CD73 endocytosis ratio %, 120 minutes [9]: 37%
- CD73 endocytosis ratio %, 240 minutes [9]: 46%
- Kd [8]: 0.257 nM
- koff [8]: 8.48e-05 s⁻¹
- kon [8]: 330000 M⁻¹ s⁻¹
B2: humanized anti-CD73 antibody 6G8 VH-v8/VK-v4 (antibody, V domains shown)
VH: QVTLRESGPALVKPTQTLTLTCTFSGFSLSTSGMGVGWIRQPPGKALEWLAHIWWDEDKYYNPSLKSRLTISKDTSKNQVVLTMTNMDPVDTATYYCARRERWAWFAYWGQGTLVTVSS
VL: EIVMTQSPATLSVSPGERATLSCRASQNVFTNVAWYQQKPGQAPRVLIYSASYRYSGIPARFSGSGSGTEFTLTISSLQSEDFAVYFCQQYNSYPTFGQGTKLEIK
notes: Human IgG1 CH1-CH3 constant region and kappa constant region; also called hu6G8 VHv8 + hu6G8 VkV4

- CD73 endocytosis ratio %, 0 minute [10]: 0%
- CD73 endocytosis ratio %, 30 minutes [10]: 28%
- CD73 endocytosis ratio %, 120 minutes [10]: 31%
- CD73 endocytosis ratio %, 240 minutes [10]: 46%
B3: control antibody 11F11-huG1 (antibody, from another filing, human IgG1, V domains shown)
VH: QVQLVESGGGVVQPGRSLRLSCATSGFTFSNYGMHWVRQAPGKGLEWVAVILYDGSNKYYPDSVKGRFTISRDNSKNTLYLQMNSLRAEDTAVYYCARGGSSWYPDSFDIWGQGTMVTVSS
VL: DIQMTQSPSSLSASVGDRVTITCRASQGISSWLAWYQQKPEKAPKSLIYAASSLQSGVPSRFSGSGSGTDFTLTISSLQPEDFATYYCQQYNSYPLTFGGGTKVEIKR
